These results are taken from article PMC4521999 (Nature, 2015).

Residue numbers refer to the chain shown, from its start. Names and notes keep the numbering of the source.

The target of one assay is rhodopsin (UniProt P02699). To be noted: cited from earlier work.
Assay [1] concerns the target T1, His8-MBP-rhodopsin E113Q/M257Y (in N2C/N282C) (human, UniProt P08100 1-348, N2^NtermC | N282^ECL3C | E113^3.28Q | M257^6.40Y). Description: AlphaScreen or HTRF. (In general: Bead proximity is the source of the signal in Alpha formats.)
The target in assay [2] is T1, His8-MBP-rhodopsin E113Q/M257Y (in …). Briefly: pull-down.
The target in assay [3] is WT rhodopsin (1–321)-TEV site-tTA (Tango construct) (human, UniProt P08100 1-321, N2^NtermC | N282^ECL3C). Description: Tango assay.
Assay [4] concerns the target E113Q/M257Y rhodopsin (1–321)-TEV site-tTA (Tango construct) (human, UniProt P08100 1-321, N2^NtermC | N282^ECL3C | E113^3.28Q | M257^6.40Y). Briefly: Tango assay.

For arrestin (from UniProt P10523), the Kd in the assay with rhodopsin is 50 nM.

For TGGRVLEDLKSCGLF [GαCT peptide, a high affinity peptide variant of the C-terminus of G-transducin (Gt)], half-maximal inhibition in assay [1] (IC50) was put at 700 nM.

B1: 35S-labelled 3A_arrestin (L374A/V375A/F376A, in vitro translated) (natural protein, mouse, UniProt P20443 1-403, looked up)
chain: MAACGKTNKSHVIFKKVSRDKSVTIYLGKRDYVDHVSQVEPVDGVVLVDPELVKGKKVYVTLTCAFRYGQEDIDVMGLTFRRDLYFSRVQVYPPVGAMSVLTQLQESLLKKLGDNTYPFLLTFPDYLPCSVMLQPAPQDVGKSCGVDFEVKAFASDITDPEEDKIPKKSSVRLLIRKVQHAPPEMGPQPSAEASWQFFMSDKPLNLSVSLSKEIYFHGEPIPVTVTVTNNTDKVVKKIKVSVEQIANVVLYSSDYYVKPVASEETQEKVQPNSTLTKTLVLVPLLANNRERRGIALDGKIKHEDTNLASSTIIKEGIDRTVMGILVSYHIKVKLTVSGFLGELTSSEVATEVPFRLMHPQPEDPAKESVQDENAAAEEFARQNLKDTGENTEGKKDEDAGQDE
modifications: 35S-methionine
On to B1, for which the “fold of the binding of WT arrestin to WT rhodopsin, with all-trans-retinal” value in assay [2] is around 60 fold.

B2: untagged 3A_arrestin (residues 10–392) (domain or fragment, mouse, UniProt P20443 10-392, looked up)
chain: SHVIFKKVSRDKSVTIYLGKRDYVDHVSQVEPVDGVVLVDPELVKGKKVYVTLTCAFRYGQEDIDVMGLTFRRDLYFSRVQVYPPVGAMSVLTQLQESLLKKLGDNTYPFLLTFPDYLPCSVMLQPAPQDVGKSCGVDFEVKAFASDITDPEEDKIPKKSSVRLLIRKVQHAPPEMGPQPSAEASWQFFMSDKPLNLSVSLSKEIYFHGEPIPVTVTVTNNTDKVVKKIKVSVEQIANVVLYSSDYYVKPVASEETQEKVQPNSTLTKTLVLVPLLANNRERRGIALDGKIKHEDTNLASSTIIKEGIDRTVMGILVSYHIKVKLTVSGFLGELTSSEVATEVPFRLMHPQPEDPAKESVQDENAAAEEFARQNLKDTGENTE
For B2, it took 15 nM to reach half-maximal inhibition in assay [1] (IC50).

B3: WT arrestin (10–392)-TEV protease (Tango construct) (domain or fragment, mouse, UniProt P20443 10-392, looked up)
chain: B2 chain with A365L, A366V, A367F
With B3, the “fold increase of binding with all-trans-retinal” value in assay [3] is around 3 fold.

B4: 3A_arrestin (10–392)-TEV protease (Tango construct) (domain or fragment, mouse, UniProt P20443 10-392, looked up)
chain: B2 chain
As for B4, the “fold increase of binding signal with all-trans-retinal” value in assay [4] is around 5 fold.

What is called Kd is the equilibrium constant for the complex coming apart. Broadly, the IC50 is the concentration at which inhibition is half-maximal.
